Data: PMC4294473

Target: recombinant human P301S 0N4R Tau (human)
Experiment: co-sedimentation; cell seeding assay: HEK293T cells expressing P301S 1N4R Tau exposed 3 h to rising concentrations of heparin-assembled, sonicated recombinant Tau aggregates (Sarkosyl-insoluble), 3 days; Sarkosyl-insoluble pellet blotted with HT7

Q: What does the source list for “human P301S 1N4R Tau expressed in HEK293T cells (natural protein)”?
A: fold more seed needed than of TgP301S Tau aggregates for equivalent seeding: > 10 fold; fold more seed needed than of TgP301S Tau seed for equivalent Sarkosyl-insoluble Tau: 50 fold
